This note sets out measurements from US20250289896A1 (ANALYTICAL BIOSCIENCES SHANGHAI, published 2025).

For assay [1], the target named is T1, mCCR8 (UniProt P56484 1-353, limits assumed).
T1 construct: whole, on cells; also called 293T-mCCR8
T1 sequence (looked up): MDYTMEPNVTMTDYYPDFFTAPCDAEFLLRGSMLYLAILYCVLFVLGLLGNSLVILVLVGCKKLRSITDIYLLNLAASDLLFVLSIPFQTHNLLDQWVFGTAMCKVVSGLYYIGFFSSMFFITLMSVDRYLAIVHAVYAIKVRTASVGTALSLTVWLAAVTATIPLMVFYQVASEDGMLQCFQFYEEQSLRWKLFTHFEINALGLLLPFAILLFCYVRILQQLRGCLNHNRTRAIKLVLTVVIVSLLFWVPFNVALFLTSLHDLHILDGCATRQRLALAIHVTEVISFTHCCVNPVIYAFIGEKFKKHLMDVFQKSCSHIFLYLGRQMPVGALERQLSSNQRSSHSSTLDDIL
Kind of assay: flow cytometry, 293T cells with mCCR8. As for the experimental part:
(§1) Binding specificity of the anti-CCR8 antibodies (mAbs) was tested by FACS using several cell lines. […] The binding titration of the anti-CCR8 antibodies to CCR8 transfectants was performed by serial dilution of antibodies. The diluted antibody (50 μl) in flow cytometry buffer (PBS, 0.5% BSA, 1 mM EDTA) was incubated with cells (50 μl) at a concentration of 2 million cells/ml on ice for 30 min. After two washes with flow cytometry buffer, bound antibody was detected with Alexa647-labeled F(ab′)2 fragment goat anti-human IgG (Jackson ImmunoResearch #709-606-149) (1:500 dilution) for 20 minutes on ice. The fluorescence was measured on a Cytek Aurora cytometer, after two washes with flow cytometry buffer. The data were analyzed with GraphPad Prism 8.0 software to determine EC50 values.
Background: A flow cytometer gives signals particle by particle.

Assay [2] addresses T2, Human CCR8 (C-C chemokine receptor type 8) (human, UniProt P51685 1-355).
T2 construct: overexpressed on HEK293T (293T-hCCR8), Jurkat-hCCR8 and CHEM1-CCR8 cells; also called hCCR8
Put plainly: flow cytometry, 293T cells overexpressing human CCR8. Here is the method: as §1

Assay [3] addresses T3, cynomolgus macaque CCR8 (cynomolgus macaque, UniProt G7NYJ2 1-355).
T3 construct: whole, on cells; Overexpressed on 293T cells (293T-cCCR8) and Jurkat cells (Jurkat-cynoCCR8); also called cCCR8; cyno CCR8
Kind of assay: flow cytometry, 293T cells overexpressing cynomolgus CCR8. Here is the method:
as §1

For assay [4], the target named is T2, Human CCR8 (C-C chemokine receptor type …). Kind of assay: flow cytometry, Hut78 cells (endogenous human CCR8). Here is the method: as §1
Assay [5] shares this target. Put plainly: flow cytometry on cells carrying human CCR8.

The EC50 is the concentration needed to bring the measured effect to its halfway point.

T3 sequence (G7NYJ2 entry or part of it): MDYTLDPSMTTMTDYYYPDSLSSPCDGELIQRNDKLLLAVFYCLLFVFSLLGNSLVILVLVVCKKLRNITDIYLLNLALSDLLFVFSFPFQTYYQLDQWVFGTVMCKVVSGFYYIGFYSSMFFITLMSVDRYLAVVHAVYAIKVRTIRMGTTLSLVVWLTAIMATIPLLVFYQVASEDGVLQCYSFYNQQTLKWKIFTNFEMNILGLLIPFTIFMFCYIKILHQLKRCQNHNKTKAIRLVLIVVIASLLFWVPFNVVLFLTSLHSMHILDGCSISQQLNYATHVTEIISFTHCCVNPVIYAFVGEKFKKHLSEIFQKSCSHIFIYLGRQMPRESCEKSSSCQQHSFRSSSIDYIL
T2 sequence (P51685 whole entry): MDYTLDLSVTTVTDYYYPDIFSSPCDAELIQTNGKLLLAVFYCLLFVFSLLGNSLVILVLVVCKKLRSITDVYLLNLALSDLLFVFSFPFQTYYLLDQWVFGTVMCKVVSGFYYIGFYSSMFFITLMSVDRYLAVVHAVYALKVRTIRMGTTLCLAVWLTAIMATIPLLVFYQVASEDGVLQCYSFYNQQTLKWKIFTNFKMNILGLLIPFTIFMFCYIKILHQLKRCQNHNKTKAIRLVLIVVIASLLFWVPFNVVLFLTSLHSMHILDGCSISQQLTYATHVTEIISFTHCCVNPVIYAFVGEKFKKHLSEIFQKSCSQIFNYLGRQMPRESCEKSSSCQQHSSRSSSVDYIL

B1: ABC818 (antibody, human IgG1, kappa, V domains shown)
VH: EVQLVESGGGLVQPGRSLKLSCAASGFTFSDYYMAWVRQAPKKGLEWVASITYAGSKTYYGDSVKGRFTISRDDAKSTLYLQMNSLRSEDTATYYCARQDLYYGHNPYWYFDFWGPGTMVTVSS
VL: DIVMTQSPTSMSISVGDRVTMNCKASQNVGSNVDWYQQKTGQSPKLLIYKTSSRFTGVPDRFTGSGSRTDFTFTISNMQAEDLALYYCVQSNSYPYTFGAGTKLELKR
As to B1, the binding result in assay [1] is “no binding”. The EC50 in assay [2] is 0.744 nM; in assay [3] it was 0.537 nM.

B2: ABC819 (antibody, human IgG1, kappa, V domains shown)
VH: EVQLVESGGGLMQPRRSLKLSCAASGFPFSDYNMAWVRQAPKKGLEWVASITYAGTKTYYGDSVKGRFTISRDDAKSTLYLQMNSLRSEDTATYYCARQDLYYGRNQYWYLDFWGPGTMVTVSS
VL: DIVMTQSPTSMSKSVGDRVTMSCKASQNVGSNVDWYQQKTGQSPKLLIYKTSSRFTGVPDRFTGSGSRTDFTFTISSMQAEDLALYYCVQSNSYPYTFGAGTKLELRT
On to B2, for which the binding result in assay [1] is listed as “no binding”. For the same molecule, the EC50 came to 8.51 nM in assay [2] and 7.11 nM in assay [3].

B3: ABC823 (antibody, human IgG1, kappa, V domains shown)
VH: EVQLVESGGGLVQPRRSLKLSCAASGFTFSDYYMAWVRQAPKKGLEWVASIGYEGSGVYYGDSVKGRFTISRDDAKSSLYLQMNSLRSEDTATYYCARQELYYGHNPYWYFDFWGPGTMVTVSS
VL: DIVMTQSPTSMSISVGDRVTMNCKASQNVGSNVDWYQQKTGQSPKLLIYKTSSRFTGVPDRFTGSGSKTAFSFTISNMQAEDLAVYYCMQSNSYPYTFGAGTKLELKR
For B3, the binding result in assay [1] was “no binding”. Besides, the EC50 came out at 1.51 nM in assay [2] and 0.884 nM in assay [3].

B4: ABC816 (antibody, human IgG1, kappa, V domains shown)
VH: AVQLVESGGGLVQPKESLKISCAASGFTFSNAAMYWVRQAPGKGLEWVARIRTKPNNYATYYADSVKGRFTISRDDSKSMVYLQMDNLKTEDTAMYYCTAAVYSSYGYFDYWGQGVMVTVSS
VL: DIQMTQSPASLSASLEEIVTITCQASQNNGNWLAWYQQKPGKSPQLLIYGTTNLADGVPSRFSGSRSGTQYSLKISRLQVEDIGIYYCQQASSTPWTFGGGTKLELKR
In assay [1], B4 returned an EC50 of 0.133 nM. The binding result in assay [4] and in assay [3] was “no binding” each time.

B5: ABC821 (antibody, human IgG1, kappa, V domains shown)
VH: EVQLVESGGGLVQPGRSLKLSCVASGFTFNYYWMTWIRQAPGKGLEWVASITNTGDTTYYPDSVKGRFTISRHNAKSTLYLQMNSLRSEDTATYYCSRGDGGSSFWIAYWGQGTLVTVSS
VL: DVVMTQTPVSLPVSLGGQASISCRSSQSLVHRSGNTYLHWYLQKPGQSPQLLIYRVSNRFSGGPDRFSGSGSGTTFTLKISRVEPEDLGDYYCLQTTHFPPTFGSGTKLEIKR
As for B5, the EC50 in assay [1] amounted to 6.74 nM. Moreover, the binding result in assay [2] and in assay [3] was “no binding” throughout.

B6: ABC815 (antibody, human IgG1, kappa, V domains shown)
VH: VQLVESGGGLVQPGRSLKLSCAASGFTFSNYDMAWVRQVPTKGLEWVASVSPSAGTTYYRDSVKGRFTVSRDIAKSSLYLQMDSLRSEDTATYYCARHMIYRGYNYAVSYYVMDVWGQGASVTVSS
VL: IQLTQSPSLLSASVGDRVTLTCKGSQNINSYLAWYQQKLGEAPKLLIYNTNSLQTGIPSRFSGSGSGTDYTLTISSLQPEDVATYFCYQYNNGYTWTFGGGTKLELKR
For the molecule B6, the binding result in assay [1] is “no binding”. The EC50 in assay [2] and in assay [3] was 6.47 nM throughout.

B7: ABC137-H2.hu12.IgG1.SDIE (antibody, V domains shown)
VH: EVQLVESGGGLVQPGGSLRLSCAASGFPFNTFAMNWVRQAPGKGLEWLARIRSKSNNYATYYADSVKDRFTISRDNAKRSLYLQMNSLRAEDTAVYYCVRGKENNYGYAMDYWGQGTTVTVSS
VL: DIVMTQSPLSLPVTPGEPASISCRSSKSLLHSNGNTYLYWFLQKPGQSPQLLIYRMSNLASGVPDRFSGSGSGTDFTLKISRVEAEDVGVYYCMQHVEYPFTFGGGTKLEIKR
notes: Parental clone ABC025.H2G.SDIE; IgG1 with SDIE mutations
For the molecule B7, the binding result in assay [5] was “binds”.

B8: ABC051-B1.hu14.IgG1.SDIE (antibody, V domains shown)
VH: EVQLVESGGGLVQPGGSLKLSCAASGFTFNTYAMNWVRQASGKGLEWVARIRSKSNNYATYYADSVKDRFTISRDDSKNTLYLQMNSLKTEDTAVYYCVREVRRDYALDQWGQGTMVTVSS
VL: DIVMTQSPLSLPVTPGEPASISCRSSKSLLHSNANTYLYWFLQKPGQSPQLLIYRMSNLASGVPDRFSGSGSGTDFTLKISRVEAEDVGVYYCMQHVEYPFTFGGGTKLEIKR
notes: IgG1 with SDIE mutations, by its name
As to B8, the binding result in assay [5] is “binds”.

B9: H2B (antibody, human IgG1, kappa, V domains shown)
VH: EVQLVESGGGLVQPGGSLRLSCAASGFPFNTFAMNWVRQAPGKGLEWLARIRSKSNNYATYYADSVKDRFTISRDNAKRSLYLQMNSLRAEDTAVYYCVRGKENNYGYAMDYWGQGTTVTVSS
VL: DIVMTQSPLSLPVTPGEPASISCRSSQSLLHSNGNTYLYWFLQKPGQSPQLLIYRMSNLASGVPDRFSGSGSGTDFTLKISRVEAEDVGVYYCMQHLEYPFTFGQGTKLEIKR
With B9, in assay [5], the binding result is reported as “binds”.

B10: ABC049-B1.hu12.IgG1.SDIE (antibody, V domains shown)
VH: EVQLVESGGGLVQPGGSLKLSCAASGFTFNTYAMNWVRQASGKGLEWVARIRSKSNNYATYYADSVKDRFTISRDDSKNTLYLQMNSLKTEDTAVYYCVREVRRDYALDQWGQGTMVTVSS
VL: DIVMTQSPLSLPVTPGEPASISCRSSKSLLHSQGNTYLYWFLQKPGQSPQLLIYRMSNLASGVPDRFSGSGSGTDFTLKISRVEAEDVGVYYCMQHVEYPFTFGGGTKLEIKR
notes: as for B8
For the molecule B10, the binding result in assay [5] was “binds”.

B11: H2I (antibody, human IgG1, kappa, V domains shown)
VH: EVQLVESGGGLVQPGGSLRLSCAASGFPFNTFAMNWVRQAPGKGLEWLARIRSKSNNYATYYADSVKDRFTISRDNARRSLYLQMNSLRAEDTAVYYCVRGKENNYGYAMDYWGQGTTVTVSS
VL: DIVMTQSPLSLPVTPGEPASISCRSSQSLLHSNANTYLYWFLQKPGQSPQLLIYRMSNLASGVPDRFSGSGSGTDFTLKISRVEAEDVGVYYCMQHLEYPFTFGQGTKLEIKR
On to B11, for which, in assay [5], the binding result is on record as “binds”.

B12: ABC050-B1.hu13.IgG1.SDIE (antibody, V domains shown)
VH: EVQLVESGGGLVQPGGSLKLSCAASGFTFNTYAMNWVRQASGKGLEWVARIRSKSNNYATYYADSVKDRFTISRDDSKNTLYLQMNSLKTEDTAVYYCVREVRRDYALDQWGQGTMVTVSS
VL: DIVMTQSPLSLPVTPGEPASISCRSSKSLLHSSGNTYLYWFLQKPGQSPQLLIYRMSNLASGVPDRFSGSGSGTDFTLKISRVEAEDVGVYYCMQHVEYPFTFGGGTKLEIKR
notes: as for B8
For the molecule B12, the binding result in assay [5] was “binds”.

B13: H2A (antibody, human IgG1, kappa, V domains shown)
VH: EVQLVESGGGLVQPGGSLRLSCAASGFPFNTFAMNWVRQAPGKGLEWLARIRSKSNNYATYYADSVKDRFTISRDNAKNSLYLQMNSLRAEDTAVYYCVRGKENNYGYAMDYWGQGTTVTVSS
VL: DIVMTQSPLSLPVTPGEPASISCRSSQSLLHSNGNTYLYWFLQKPGQSPQLLIYRMSNLASGVPDRFSGSGSGTDFTLKISRVEAEDVGVYYCMQHLEYPFTFGQGTKLEIKR
In the case of B13, the binding result in assay [5] is given as “binds”.

B14: H2C (antibody, human IgG1, kappa, V domains shown)
VH: EVQLVESGGGLVQPGGSLRLSCAASGFPFNTFAMNWVRQAPGKGLEWLARIRSKSNNYATYYADSVKDRFTISRDNARRSLYLQMNSLRAEDTAVYYCVRGKENNYGYAMDYWGQGTTVTVSS
VL: DIVMTQSPLSLPVTPGEPASISCRSSQSLLHSNGNTYLYWFLQKPGQSPQLLIYRMSNLASGVPDRFSGSGSGTDFTLKISRVEAEDVGVYYCMQHLEYPFTFGQGTKLEIKR
As to B14, the binding result in assay [5] is given as “binds”.

B15: ABC531 (antibody, human IgG1, kappa, V domains shown)
VH: EVQLVESGGGVVQPGGSLRLSCAASGFTFSNYGMHWIRQAPGKGLEWIAMIYSDSSKMFYTDTVKGRFTISRDNSKNTLYLQMNSLRAEDTAVYYCAARDYGYKGAHYYVMDAWGQGTTVTVSS
VL: DIQMTQSPSSLSASVGDRVTITCKSSQNINRYLNWYQQKPGKAPKLLIYNANNLQTGIPSRFSGSGSGTDFTFTISSLQPEDIATYYCLQHKSWPYTFGQGTKLEIKR
B15: the binding result in assay [1] is “no binding”. Moreover, the EC50 came to 1.44 nM in assay [2] and 0.554 nM in assay [3].

B16: ABC527 (antibody, human IgG1, kappa, V domains shown)
VH: EVQLVESGGGVVQPGRSLRLSCAASGFPFSFYGMAWVRQAPGKGLEWVASISYDGSDTYYRDSVKGRFTISRDNSKNTLYLQMNSLRAEDTAVYYCAKTSGYGSFDYWGQGTLVTVSS
VL: DIVMTQTPLSLSVTPGQPASISCRSSRSLVHRNGDTYLHWYLQKPGQSPQLLIYRVSNRFAGVPDRFSGSGSGTDFTLKISRVEAEDVGVYYCLQGTHLPPTFGQGTKLEIKR
On to B16, for which, in assay [1], the binding result is “no binding”. The EC50 in assay [2] came to 1.74 nM; in assay [3] it was 2.14 nM.
